B1: glmS ribozyme (parent)
chain: AUAAAAGCGCCAGAACUACAGAAAUGUAGUUGACGAGGAGGAGGUUUAUCGAAUUUUCGGCGGAUGCCUCCAAA

Common to all, as to conditions: with glucosamine-6-phosphate
Data set [1] covers variants of B1. Put plainly: self-cleavage kobs at 40 uM GlcN6P; higher = faster cleavage; RNA array. The procedure, abridged: (§1)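 Tracking of barcoded ribozyme variants used a hybridised Cy3 probe at 37 °C, after in situ transcription by E. coli RNA polymerase on sequenced MiSeq chips. The flowed solution held 40 μM to 10 mM glucosamine-6-phosphate in HEPES/KCl/Mg(OAc)2 buffer, and imaging ran over ~14 h. kobs was taken from exponential decay fits of normalised per-tile medians, and kcat and KM from weighted Michaelis–Menten fits.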

The variants in data set [2] derive from B1. Put plainly: self-cleavage kobs at 10000 uM GlcN6P; higher = faster cleavage; RNA array. The procedure, abridged: as §1
Variants of B1 are the subject of data set [3]. The data set can be described thus: self-cleavage kobs at 160 uM GlcN6P; higher = faster cleavage; RNA array. In short, it runs like this: as §1
The variants in data set [4] derive from B1. Put plainly: self-cleavage kobs at 640 uM GlcN6P; higher = faster cleavage; RNA array. In short, it runs like this: as §1
In data set [5] the parent is B1. Put plainly: self-cleavage kobs at 2500 uM GlcN6P; higher = faster cleavage; RNA array. In short, it runs like this:
as §1

± gives the standard error. This sample holds only a part of the variants without activity.

Take AUAAAAGCGCCAGAACUACAGAAAUGUAGUUGACUACGAUGAGGUUUAUCGAAUUAUCGGCGGAAGCCUCCAAA: the “self-cleavage kobs at 40 uM GlcN6P” value in data set [1] is below 1e-05 s⁻¹.
AUAAAAGCCCCAGAACUACAGAAAUGUAGUUGACGAGGAGGAAUUUUAUCGAAUUUUCGGCGGAUGCCUGCAAA: the “self-cleavage kobs at 40 uM GlcN6P” value in data set [1] was below 1e-05 s⁻¹. For the same variant, the “self-cleavage kobs at 10000 uM GlcN6P” value in data set [2] was below 1e-05 s⁻¹.
On to AUAAAAGCGCCAGAACUACAGAAAUGUACUUGACGAGGCGGAGGUUUCUCGAAUUUUCGACGGAUGCCUCCAAA, for which the “self-cleavage kobs at 40 uM GlcN6P” value in data set [1] was below 1e-05 s⁻¹. Besides, the “self-cleavage kobs at 10000 uM GlcN6P” value in data set [2] was below 1e-05 s⁻¹.
Consider AUAAAAUCGCCCGAACUACAGAAAUGUACUUGACGAGGAGGAGGUUUAUCGAAUUUUCGGCGGAUGCCUCCAAA, for which the “self-cleavage kobs at 40 uM GlcN6P” value in data set [1] was below 1e-05 s⁻¹. Moreover, in data set [3], the “self-cleavage kobs at 160 uM GlcN6P” value is below 1e-05 s⁻¹. The “self-cleavage kobs at 640 uM GlcN6P” value in data set [4] was below 1e-05 s⁻¹. Further, in data set [5], the “self-cleavage kobs at 2500 uM GlcN6P” value was below 1e-05 s⁻¹.
For AUAAAAGCUCCAGACCUACAGAAAUGUAGUUGACGAGGAGGAGCUUCAUCGAAUUUUCGGCGGAUGCCUCCAAA, the “self-cleavage kobs at 40 uM GlcN6P” value in data set [1] was below 1e-05 s⁻¹. Besides, the “self-cleavage kobs at 2500 uM GlcN6P” value in data set [5] was below 1e-05 s⁻¹. In data set [2], the “self-cleavage kobs at 10000 uM GlcN6P” value was below 1e-05 s⁻¹.
Regarding AUAAAAGCGCCCGAACUACAGAAAUGUAGUUGACGAGGAGGACGUUUAUCGAAUUUUCGGCGGAUGCCUCCAAA, the “self-cleavage kobs at 40 uM GlcN6P” value in data set [1] is below 1e-05 s⁻¹. Besides, the “self-cleavage kobs at 160 uM GlcN6P” value in data set [3] was below 1e-05 s⁻¹. In addition, the “self-cleavage kobs at 640 uM GlcN6P” value in data set [4] was below 1e-05 s⁻¹.
For the variant AUAAAAGCGCCAGAACUACAGAAAUGUAGUUGACGAGGAGGAGGAUUAUCGAAUUUUCGACGGAUGCCUCCAAA, the “self-cleavage kobs at 40 uM GlcN6P” value in data set [1] was below 1e-05 s⁻¹. The “self-cleavage kobs at 160 uM GlcN6P” value in data set [3] was below 1e-05 s⁻¹.
In the case of AUAAAAGCGCCAGAACUACAGAAAUGUAGUUGACGAGGGGGAGGUUUAUCGAAUGUUCGGCGGAUGACUCCAAA, the “self-cleavage kobs at 40 uM GlcN6P” value in data set [1] was determined as 0.000369 ± 0.00011 s⁻¹. Moreover, the “self-cleavage kobs at 10000 uM GlcN6P” value in data set [2] was determined as 0.0117 ± 0.003 s⁻¹.
Regarding AUAAAAGCGCCAGAACUACAGAAAUGUAGUUGACGAGGAGGAGUUUUAUCGAAUUUACGGCGGAUGCCACCAAA, the “self-cleavage kobs at 40 uM GlcN6P” value in data set [1] was below 1e-05 s⁻¹. Besides, in data set [3], the “self-cleavage kobs at 160 uM GlcN6P” value is below 1e-05 s⁻¹. For the same variant, in data set [4], the “self-cleavage kobs at 640 uM GlcN6P” value is below 1e-05 s⁻¹. In addition, the “self-cleavage kobs at 10000 uM GlcN6P” value in data set [2] was below 1e-05 s⁻¹.
Turning to AUAAAAGCGCCAGAACUACAGAAAUGUAGUUGACGAGGAGUAUGUUUAUCGAAUUUUCGGCGGAUGCCUCCAAA, the “self-cleavage kobs at 40 uM GlcN6P” value in data set [1] was below 1e-05 s⁻¹. Moreover, the “self-cleavage kobs at 640 uM GlcN6P” value in data set [4] is below 1e-05 s⁻¹. Further, the “self-cleavage kobs at 2500 uM GlcN6P” value in data set [5] is below 1e-05 s⁻¹. Further, the “self-cleavage kobs at 10000 uM GlcN6P” value in data set [2] was below 1e-05 s⁻¹.
Regarding AUAAACGCGCCAUAACUACAGAAAUGUAGUUGACGAGGAGGAGGUUUAUCGAAUUUUAGGCGGCUGCCUCCAAA, in data set [1], the “self-cleavage kobs at 40 uM GlcN6P” value was below 1e-05 s⁻¹. Moreover, the “self-cleavage kobs at 160 uM GlcN6P” value in data set [3] is below 1e-05 s⁻¹. In data set [4], the “self-cleavage kobs at 640 uM GlcN6P” value was below 1e-05 s⁻¹. In data set [5], the “self-cleavage kobs at 2500 uM GlcN6P” value is below 1e-05 s⁻¹.
Consider AUAAAAGCGCCAGAGCUACAGAAAUGUAGUUGACGAGGAGGAGGUUUAUCGAAAUUUCGGCGGAUGCCUCAAAA, for which the “self-cleavage kobs at 40 uM GlcN6P” value in data set [1] stood at 0.000174 ± 5.4e-05 s⁻¹. Besides, the “self-cleavage kobs at 10000 uM GlcN6P” value in data set [2] was 0.00522 ± 0.0014 s⁻¹.
Take AUAAAAGCGCUAGAACUACAGAAAUGUAGUUGACGAGGAGCAGGAUUAUCGAAUUUUCGGCGGAUGCCUCGAAA: the “self-cleavage kobs at 40 uM GlcN6P” value in data set [1] was below 1e-05 s⁻¹. The “self-cleavage kobs at 160 uM GlcN6P” value in data set [3] was below 1e-05 s⁻¹. Further, the “self-cleavage kobs at 2500 uM GlcN6P” value in data set [5] was below 1e-05 s⁻¹.
Turning to AUAAAAGCGCCAGAACUACAGAAAUGUAGUUGACGAGUAGGAGGUUUAUCGAAUUUUCGGCGUAUGCCUCCAAA, the “self-cleavage kobs at 40 uM GlcN6P” value in data set [1] was below 1e-05 s⁻¹. Besides, in data set [5], the “self-cleavage kobs at 2500 uM GlcN6P” value was below 1e-05 s⁻¹. Also, in data set [2], the “self-cleavage kobs at 10000 uM GlcN6P” value was below 1e-05 s⁻¹.
For AUAAAAGCGCCAGAACUACAGAAAUGUAGUUGACGCGGAGGAGGUUUCUCGAAUUAUCGGCGGAUGCCUCCAAA, the “self-cleavage kobs at 40 uM GlcN6P” value in data set [1] is below 1e-05 s⁻¹.
AUAAAAGCGACAGUACUACAGAAAUGUAGUUGACGAGGAGGAGGUUUAUCGAAUUUUCGGCGGAUGCCUACAAA: the “self-cleavage kobs at 40 uM GlcN6P” value in data set [1] was determined as 5.36e-05 ± 2.5e-05 s⁻¹. Also, in data set [2], the “self-cleavage kobs at 10000 uM GlcN6P” value turned out to be 3.49e-05 ± 1.4e-05 s⁻¹.
For AUAAAAGCGGCAGAACUACAGAAAUGUAGUUAACGAGGAGGAGGUUUAUCGAAUUUUCGGCGGAUGCCUCCAAA the same measures were below 1e-05 s⁻¹ and below 1e-05 s⁻¹.
In the case of AUAAAAGCGCCAGAACUACAGAAAUGUAGUUGACGAGGAGGAGAUUUAUCGAAUUUUCGGCGGAUGCCUCGAAA, the “self-cleavage kobs at 40 uM GlcN6P” value in data set [1] is below 1e-05 s⁻¹. The “self-cleavage kobs at 160 uM GlcN6P” value in data set [3] is below 1e-05 s⁻¹. Further, in data set [4], the “self-cleavage kobs at 640 uM GlcN6P” value was below 1e-05 s⁻¹. Besides, the “self-cleavage kobs at 10000 uM GlcN6P” value in data set [2] is below 1e-05 s⁻¹.
With AUAAAAGCGCCUGAACUACAGAAAUGUAGUUGAUGAGGAGUAGGUUUAUCGAAUUUUCGGCGGAUCCCUCCAAA, in data set [1], the “self-cleavage kobs at 40 uM GlcN6P” value is below 1e-05 s⁻¹. The “self-cleavage kobs at 2500 uM GlcN6P” value in data set [5] is below 1e-05 s⁻¹. For the same variant, the “self-cleavage kobs at 10000 uM GlcN6P” value in data set [2] was below 1e-05 s⁻¹.
Consider AUAAAAGCGCCAGAACUACAGAAAUGUAGUUGACGACGAGGAGGUUUAUCGAAUUGUCGGCGGAUGCCUCCAAA, for which the “self-cleavage kobs at 40 uM GlcN6P” value in data set [1] was below 1e-05 s⁻¹. In addition, the “self-cleavage kobs at 160 uM GlcN6P” value in data set [3] is below 1e-05 s⁻¹.
For the variant AUAAAGGCGCCAGAACUACAGAAAUGUAGUUGACGAGGAGGAGGUUUAUAGAAUUUUCGGCGGAUGCCUUCAAA, the “self-cleavage kobs at 40 uM GlcN6P” value in data set [1] was below 1e-05 s⁻¹.
On to AUAAAAGCGCCUGAACUACAGAAAUGUAGUUGACGGGGAGGAGGUUUAUCGAAAUUUCGGCGGAUGCCUCCAAA, for which, in data set [1], the “self-cleavage kobs at 40 uM GlcN6P” value was below 1e-05 s⁻¹.
For the variant AUAAAAGCGCCAGAACUACAGAAAUGUAGUUGACGAGGACGAUGUUUAUCGAAUUUUCGGCGGAUGCCUACAAA, the “self-cleavage kobs at 40 uM GlcN6P” value in data set [1] is below 1e-05 s⁻¹. Further, the “self-cleavage kobs at 10000 uM GlcN6P” value in data set [2] was below 1e-05 s⁻¹.
Consider AUAAAUGCGCCAGAACUACAGAAAUGUAGUUGGCGAGGAGGAGGUUUAUCGAAUUUUCGGCGGAUGCCUCCAAA, for which the “self-cleavage kobs at 40 uM GlcN6P” value in data set [1] was below 1e-05 s⁻¹. In data set [4], the “self-cleavage kobs at 640 uM GlcN6P” value was below 1e-05 s⁻¹.
As to AUAAAAGCGCCAGAACUACAGAAAUGUAGUUGACGAGGAGGAGGUUUAUCAAAUUUUGGGCGGAUGCCUCCAAA, the “self-cleavage kobs at 40 uM GlcN6P” value in data set [1] was below 1e-05 s⁻¹. In addition, the “self-cleavage kobs at 10000 uM GlcN6P” value in data set [2] was below 1e-05 s⁻¹.
As to AUAAAAGCGCCAGAACUACAGAAAUGUAAUUGACGAGGAGGACGUUUAUCGAAUUUUCGGCGGAUGCCUCCAAA, in data set [1], the “self-cleavage kobs at 40 uM GlcN6P” value was below 1e-05 s⁻¹. Further, the “self-cleavage kobs at 160 uM GlcN6P” value in data set [3] is below 1e-05 s⁻¹. Further, the “self-cleavage kobs at 640 uM GlcN6P” value in data set [4] was below 1e-05 s⁻¹. Also, the “self-cleavage kobs at 10000 uM GlcN6P” value in data set [2] was below 1e-05 s⁻¹.
For AUAAAAGCGGCAGAACUACAGAAAUGUAGUUGACGAGGAGGAGGUUUAUGGAAUUUUCGGCGGAUGCCUCCAAA, the “self-cleavage kobs at 40 uM GlcN6P” value in data set [1] was 5.37e-05 ± 1.8e-05 s⁻¹. For the same variant, in data set [3], the “self-cleavage kobs at 160 uM GlcN6P” value was found to be 0.000187 ± 3.5e-05 s⁻¹. The “self-cleavage kobs at 640 uM GlcN6P” value in data set [4] stood at 0.00026 ± 4.4e-05 s⁻¹. Moreover, the “self-cleavage kobs at 2500 uM GlcN6P” value in data set [5] came out at 9.17e-05 ± 2.1e-05 s⁻¹. Besides, the “self-cleavage kobs at 10000 uM GlcN6P” value in data set [2] is 4.6e-05 ± 1.1e-05 s⁻¹.
On to AUAAAAGCGCCAGAACUACAGAAAUGUAGUUGACGAGGAGGAGGUUUAUCGAAUUUUCGCAGGAUGCCUCCAAA, for which the “self-cleavage kobs at 40 uM GlcN6P” value in data set [1] was below 1e-05 s⁻¹. In data set [3], the “self-cleavage kobs at 160 uM GlcN6P” value was below 1e-05 s⁻¹. For the same variant, the “self-cleavage kobs at 640 uM GlcN6P” value in data set [4] is below 1e-05 s⁻¹. Also, the “self-cleavage kobs at 10000 uM GlcN6P” value in data set [2] was below 1e-05 s⁻¹.

The values above are taken from the supplement of paper PMC7125110.
